Results on 7 molecules are retold here after PMC4007306 (Archives of biochemistry and biophysics, 2013).

The target in data set [1] is S-adenosylmethionine synthetase (AdoMet synthetase, MAT) from Neisseria meningitidis WUE2594 (Neisseria meningitidis WUE2594). Put plainly: native gel or EMSA.
The target is the same in data set [2]. Briefly: dynamic light scattering.
Data set [3] concerns the target AdoMet synthetase (MAT, MetK). Briefly: coupled enzyme assay, Dixon plot. Type of data set: biochemical, Campylobacter jejuni.
In data set [4] the target is T1, AdoMet synthetase (MAT, MetK) (Pseudomonas aeruginosa, UniProt Q9I5Z0).
T1 sequence (Q9I5Z0 1-396): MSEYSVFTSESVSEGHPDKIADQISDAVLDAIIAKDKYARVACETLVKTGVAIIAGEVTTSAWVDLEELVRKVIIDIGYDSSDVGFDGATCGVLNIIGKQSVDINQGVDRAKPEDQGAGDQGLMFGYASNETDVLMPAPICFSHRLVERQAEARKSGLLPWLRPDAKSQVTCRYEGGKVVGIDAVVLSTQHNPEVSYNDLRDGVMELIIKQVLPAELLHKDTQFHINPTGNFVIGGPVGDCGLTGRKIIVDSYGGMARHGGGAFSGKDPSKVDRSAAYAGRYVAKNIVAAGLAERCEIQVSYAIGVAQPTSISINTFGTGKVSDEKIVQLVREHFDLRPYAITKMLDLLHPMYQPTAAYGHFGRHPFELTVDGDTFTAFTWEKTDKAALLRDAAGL
Briefly: coupled enzyme assay, Dixon plot. The class given is biochemical.

Substrate in data set [5]: COC(=O)[C@@H](N)CCSC
Briefly: coupled pyrophosphate enzyme assay, alternative substrate kinetics. The settings on record: MgATP L-methionine binding site. Type of data set: biochemical, Escherichia coli.

Substrate in data set [6]: CCOC(=O)[C@@H](N)CCSC
Described as above. Type of data set: biochemical, Escherichia coli. The conditions noted are these: MgATP L-methionine binding site.

Substrate in data set [7]: CSCC[C@H](N)C(=O)O
Briefly: coupled pyrophosphate enzyme assay, steady-state kinetics. The conditions noted are these: MgATP L-methionine binding site of the active site. Type of data set: biochemical, Pseudomonas aeruginosa.

The data set “dynamic light scattering” deals with the molecule itself. Briefly: dynamic light scattering.

As to “S-adenosylmethionine synthetase (AdoMet synthetase, MAT) from Neisseria meningitidis WUE2594 (enzyme)”, the stoichiometry N in data set [1] and in data set [2] was 4 each time.
As to `CSCC[C@H](N)CC(=O)O` [β-methionine, (R)-3-amino-5-(methylthio)pentanoic acid], in data set [3], the Ki (usually a measure of affinity in units of concentration, obtained from inhibition or displacement) was about 7 mM.
As to `NC(=O)SC[C@H](N)C(=O)O` [S-carbamyl-L-cysteine], the Ki in data set [4] is about 4 mM.

B1: AdoMet synthetase (MAT, MetK) (Escherichia coli K-12) (protein)
chain: AKHLFTSESVSEGHPDKIADQISDAVLDAILEQDPKARVACETYVKTGMVLVGGEITTSAWVDIEEITRNTVREIGYVHSDMGFDANSCAVLSAIGKQSPDINQGVDRADPLEQGAGDQGLMFGYATNETDVLMPAPITYAHRLVQRQAEVRKNGTLPWLRPDAKSQVTFQYDDGKIVGIDAVVLSTQHSEEIDQKSLQEAVMEEIIKPILPAEWLTSATKFFINPTGRFVIGGPMGDCGLTGRKIIVDTYGGMARHGGGAFSGKDPSKVDRSAAYAARYVAKNIVAAGLADRCEIQVSYAIGVAEPTSIMVETFGTEKVPSEQLTLLVREFFDLRPYGLIQMLDLLHPIYKETAAYGHFGREHFPWEKTDKAQLLRDAAGLK
Regarding B1, the Km – broadly, the concentration of substrate that gives half-maximal velocity – was found to be 170 ± 50 µM in data set [5] and 120 ± 10 µM in data set [6].

B2: S-adenosylmethionine synthetase (AdoMet synthetase, MAT) from Pseudomonas aeruginosa PA01 (enzyme, UniProt B7V4D3 1-396, looked up)
chain: MSEYSVFTSESVSEGHPDKIADQISDAVLDAIIAKDKYARVACETLVKTGVAIIAGEVTTSAWVDLEELVRKVIIDIGYDSSDVGFDGATCGVLNIIGKQSVDINQGVDRAKPEDQGAGDQGLMFGYASNETDVLMPAPICFSHRLVERQAEARKSGLLPWLRPDAKSQVTCRYEGGKVVGIDAVVLSTQHNPEVSYNDLRDGVMELIIKQVLPAELLHKDTQFHINPTGNFVIGGPVGDCGLTGRKIIVDSYGGMARHGGGAFSGKDPSKVDRSAAYAGRYVAKNIVAAGLAERCEIQVSYAIGVAQPTSISINTFGTGKVSDEKIVQLVREHFDLRPYAITKMLDLLHPMYQPTAAYGHFGRHPFELTVDGDTFTAFTWEKTDKAALLRDAAGL
For the molecule B2, the Km in data set [7] is 40 ± 5 µM. The stoichiometry N (in general, the number of molecules, sites or subunits per partner or assembly) in the data set “dynamic light scattering” is 4.

B3: S-adenosylmethionine synthetase (AdoMet synthetase, MAT) from Campylobacter jejuni 81-176 (enzyme, UniProt Q0P9F8 1-398, looked up)
chain: MYLFTSEVVSAGHPDKCADIIADTIVDILLKNDKNSRVASEVFVAGNKVVIGGEVKSNHKLSKADYDNLVKDVLKNIGYDGAGHFSKEQCLHPDEVDVMVFLNEQSPDINQGVDQEDGETGAGDQGIMFGFASCEAEEYMPAAISYARMLCDRVYAYAKANPHELGVDIKTQVTIDYGTKANFENCKPQSIHTIVVSAPCVESMKIEDLRSLVMKLILDSNLPKELFDPNKTRILINPTGKYVNHSSLHDSGLTGRKLIVDSFGGYSPIGGGAQSSKDYTKVDRSGLYAGRWLAKNIVAAGLAKKCIVQLSYAIGVAKPTSVSVDCMGTNTSVNDDVLSDFVMQNFSLTPNWIRDKFHLDKPSKETFLYADVAARGQVGQKDYPWEKLDALEQFKKLL
With B3, in “dynamic light scattering”, the “stoichiometry N” value worked out at 2.

B4: S-adenosylmethionine synthetase (AdoMet synthetase, MAT) from Escherichia coli K12 (enzyme, UniProt B1XFA4 1-384, looked up)
chain: MAKHLFTSESVSEGHPDKIADQISDAVLDAILEQDPKARVACETYVKTGMVLVGGEITTSAWVDIEEITRNTVREIGYVHSDMGFDANSCAVLSAIGKQSPDINQGVDRADPLEQGAGDQGLMFGYATNETDVLMPAPITYAHRLVQRQAEVRKNGTLPWLRPDAKSQVTFQYDDGKIVGIDAVVLSTQHSEEIDQKSLQEAVMEEIIKPILPAEWLTSATKFFINPTGRFVIGGPMGDCGLTGRKIIVDTYGGMARHGGGAFSGKDPSKVDRSAAYAARYVAKNIVAAGLADRCEIQVSYAIGVAEPTSIMVETFGTEKVPSEQLTLLVREFFDLRPYGLIQMLDLLHPIYKETAAYGHFGREHFPWEKTDKAQLLRDAAGLK
B4: the “stoichiometry N” value in “dynamic light scattering” was 4.
